Drawing on paper PMC9561763, “Semi-rational engineering membrane binding domain of L-amino acid deaminase from Proteus vulgaris for enhanced α-ketoisocaproate” (Frontiers in Microbiology, 2022), this text covers Km, kcat and kcat/Km for 1 protein.

Substrate in the data set: CC(C)C[C@H](N)C(=O)O
Briefly: alpha-ketoisocaproate formation, Michaelis-Menten fit. The note with it: 20 mM phosphate pH 7.5, 37 °C, 0-175 mM L-leucine (b36 says optimal temperature and pH), Triton X-100 purified enzyme. Type of data set: biochemical, Proteus vulgaris.

Source text: alpha-ketoisocaproate formation, Michaelis-Menten fit on L-amino acid deaminase (L-AAD) from Proteus vulgaris

B1: L-amino acid deaminase (L-AAD) from Proteus vulgaris (Proteus vulgaris) (protein)
chain: MAISRRKFIIGGTVVAVAAGAGILTPMLTREGRFVPGTPRHGFVEGTEGALPKQADVVVVGAGILGIMTAINLVERGLSVVIVEKGNIAGEQSSRFYGQAISYKMPDETFLLHHLGKHRWREMNAKVGIDTTYRTQGRVEVPLDEEDLVNVRKWIDERSKNVGSDIPFKTRIIEGAELNQRLRGATTDWKIAGFEEDSGSFDPEVATFVMAEYAKKMGVRIYTQCAARGLETQAGVISDVVTEKGAIKTSQVVVAGGVWSRLFMQNLNVDVPTLPAYQSQQLISGSPTAPGGNVALPGGIFFREQADGTYATSPRVIVAPVVKESFTYGYKYLPLLALPDFPVHISLNEQLINSFMQSTHWNLDEVSPFEQFRNMTALPDLPELNASLEKLKAEFPAFKESKLIDQWSGAMAIAPDENPIISEVKEYPGLVINTATGWGMTESPVSAELTADLLLGKKPVLDPKPFSLYRF
Broadly, the Km is the substrate concentration at which the rate is half of its maximum. Broadly, the kcat is the maximal rate divided by the concentration of active sites. One may read the kcat/Km as the turnover number divided by the Michaelis constant. Consider B1, for which the Km is 17.71 mM, the kcat is 1.41 s⁻¹ and the catalytic efficiency (kcat/Km) is 79.5 M⁻¹ s⁻¹.
